Source: EP4814019A1 (Zhejiang University, dated 2026)

target: T1, …-HLA A0201 complex (human, biotinylated with BirA (site not stated)); assay: SPR (BIAcore), biotinylated pMHC on streptavidin-coupled CM5 chip, nanobody as analyte
T1 construct: Held on streptavidin in the ELISA and in SPR; also called NY-ESO-1 antigen; positive antigen NY-ESO-1

Row | Kd | Binder
1 | 1170 nM | NY-ESO-1-VHH-9 (VHH, Synthetic nanobody from a yeast display library) VHH: QVQLQESGGGLVQAGGSLRLSCAASGYISYLNTMGWYRQAPGKEREFVATIGQGSSTYYADSVKGRFTISRDNAKNTVYLQMNSLKPEDTAVYYCADQLGYWGQGTQVTVSS
2 | 68.1 nM | NY-ESO-1-VHH-5 (VHH, Synthetic nanobody from a yeast display library) VHH: QVQLQESGGGLVQAGGSLRLSCAASGNISAVYTMGWYRQAPGKEREFVAAIDYGGSTYYADSVKGRFTISRDNAKNTVYLQMNSLKPEDTAVYYCASYYHGYWGQGTQVTVSS

Second part, the binder before the results:

Row | Binder | Kd
3 | NY-ESO-1-VHH-1 (VHH, Synthetic nanobody from a yeast display library) VHH: QVQLQESGGGLVQAGGSLRLSCAASGTIFHQIDMGWYRQAPGKERELVAAIGTGSSTYYADSVKGRFTISRDNAKNTVYLQMNSLKPEDTAVYYCAAWHYYWGQGTQVTVSS | 96.6 nM
4 | NY-ESO-1-VHH-4 (VHH, Synthetic nanobody from a yeast display library) VHH: QVQLQESGGGLVQAGGSLRLSCAASGNIFYPQYMGWYRQAPGKEREFVAAISDGASTYYADSVKGRFTISRDNAKNTVYLQMNSLKPEDTAVYYCADLWYWGQGTQVTVSS | 102 nM
